We go through one substance from patent US20110151450.

Common to all, as to experiment: cleavage_in_vitro
Data set [1] relates to T1, BmtI-WT (Bacillus megaterium).
T1 sequence: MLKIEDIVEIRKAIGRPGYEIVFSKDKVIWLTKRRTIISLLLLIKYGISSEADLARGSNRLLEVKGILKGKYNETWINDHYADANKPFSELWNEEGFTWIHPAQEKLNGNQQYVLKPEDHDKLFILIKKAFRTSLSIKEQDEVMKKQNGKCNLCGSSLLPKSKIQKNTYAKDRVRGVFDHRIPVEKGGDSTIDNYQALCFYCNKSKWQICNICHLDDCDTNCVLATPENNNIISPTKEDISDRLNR
To be noted: NEB4, relative activity 100%.

Data set [2] relates to T2, BmtI-HF S50A (Bacillus megaterium).
T2 sequence: T1 sequence with S50A
To be noted: NEB4, relative activity 100%.

Data set [3] relates to T3, PvuI-HF P154A (Proteus vulgaris).
T3 sequence: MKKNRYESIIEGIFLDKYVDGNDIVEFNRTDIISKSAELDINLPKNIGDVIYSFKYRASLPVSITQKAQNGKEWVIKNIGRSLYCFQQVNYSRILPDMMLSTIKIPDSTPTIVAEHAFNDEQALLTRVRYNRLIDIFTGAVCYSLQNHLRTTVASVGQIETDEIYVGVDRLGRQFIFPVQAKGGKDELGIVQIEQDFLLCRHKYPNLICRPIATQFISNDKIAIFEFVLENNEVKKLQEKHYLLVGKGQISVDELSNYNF
The following applies: NEB4, relative activity 100%.

In data set [4] the test system is T4, ApoI-WT (Arthrobacter protophormiae).
T4 sequence: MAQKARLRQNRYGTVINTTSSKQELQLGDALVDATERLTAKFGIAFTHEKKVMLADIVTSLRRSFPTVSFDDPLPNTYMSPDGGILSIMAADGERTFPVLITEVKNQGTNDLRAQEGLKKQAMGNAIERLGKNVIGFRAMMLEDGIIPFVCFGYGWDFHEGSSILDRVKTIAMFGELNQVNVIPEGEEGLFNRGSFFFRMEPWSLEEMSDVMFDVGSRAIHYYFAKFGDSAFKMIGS
To be noted: NEB4, relative activity 50%.

In data set [5] the test system is T5, BsaWI-HF Q261A (Bacillus stearothermophilus).
T5 sequence: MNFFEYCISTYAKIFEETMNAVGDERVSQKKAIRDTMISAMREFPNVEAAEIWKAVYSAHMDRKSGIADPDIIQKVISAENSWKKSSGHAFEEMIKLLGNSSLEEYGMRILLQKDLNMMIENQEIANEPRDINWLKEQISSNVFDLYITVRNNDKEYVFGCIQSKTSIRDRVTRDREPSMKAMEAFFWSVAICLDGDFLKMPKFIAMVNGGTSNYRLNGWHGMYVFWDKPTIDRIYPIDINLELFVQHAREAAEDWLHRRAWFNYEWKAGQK
To be noted: NEB4, relative activity 100%.

Data set [6] has as its system T6, BsaWI-WT (Bacillus stearothermophilus).
T6 sequence: T5 sequence with A261Q
To be noted: NEB4, relative activity 100%.

In data set [7] the test system is T7, SpeI-HF P65A (Sphaerotilus natans).
T7 sequence: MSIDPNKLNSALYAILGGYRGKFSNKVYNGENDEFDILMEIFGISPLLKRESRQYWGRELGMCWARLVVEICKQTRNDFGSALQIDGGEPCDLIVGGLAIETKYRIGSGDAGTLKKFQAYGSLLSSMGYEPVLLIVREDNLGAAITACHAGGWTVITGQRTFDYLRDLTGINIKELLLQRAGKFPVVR
To be noted: NEB4, relative activity 100%.

The target in data set [8] is T8, SmaI-HF F60L/S61R (Serratia marcescens) (UniProt P14229).
T8 sequence: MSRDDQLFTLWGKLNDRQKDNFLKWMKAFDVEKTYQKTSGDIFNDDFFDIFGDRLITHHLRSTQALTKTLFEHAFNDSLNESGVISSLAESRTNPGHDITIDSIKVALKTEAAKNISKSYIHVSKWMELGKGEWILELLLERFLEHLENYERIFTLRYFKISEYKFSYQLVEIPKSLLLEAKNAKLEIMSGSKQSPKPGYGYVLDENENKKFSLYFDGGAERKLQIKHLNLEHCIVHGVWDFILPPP
The following applies: NEB4, relative activity 100%.

Data set [9] relates to T9, NsiI-WT (Neisseria sicca).
T9 sequence: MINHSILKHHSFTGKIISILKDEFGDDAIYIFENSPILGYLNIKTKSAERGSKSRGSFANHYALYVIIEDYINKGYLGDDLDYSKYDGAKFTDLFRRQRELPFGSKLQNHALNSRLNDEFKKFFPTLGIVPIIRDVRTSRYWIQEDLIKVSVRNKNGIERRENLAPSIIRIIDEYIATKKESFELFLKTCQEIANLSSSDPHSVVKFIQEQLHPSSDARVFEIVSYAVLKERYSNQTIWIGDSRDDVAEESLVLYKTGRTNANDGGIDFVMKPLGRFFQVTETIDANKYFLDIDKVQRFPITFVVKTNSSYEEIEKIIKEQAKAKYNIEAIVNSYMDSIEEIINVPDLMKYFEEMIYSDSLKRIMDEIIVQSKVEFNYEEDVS
The following applies: NEB4, relative activity 12.5%.

Data set [10] has as its system T10, NsiI-HF F376A (Neisseria sicca).
T10 sequence: T9 sequence with F376A
The following applies: NEB4, relative activity 100%.

Positions count from the first letter of the chain named. Bounds are passed on as bounds.

pXba plasmid: the activity (fidelity index) was 16 in data set [1]; above 1e+06 in data set [2]; above 16000 in [3]; 32 in data set [4]; above 4000 in data set [5]; 16 in data set [6]. Also, the activity (fidelity index) in [7] is above 8000; in data set [8], above 256000; in data set [9] it was 32; in [10] it was above 8000.
